Patent US20230242671A1 (Eli Lilly, published 2023)
Numbering of substitutions follows the chain as printed.

T1: human TIGIT-ECD (human, UniProt Q495A1 22-141)
T1 construct: extracellular domain
T1 sequence (looked up): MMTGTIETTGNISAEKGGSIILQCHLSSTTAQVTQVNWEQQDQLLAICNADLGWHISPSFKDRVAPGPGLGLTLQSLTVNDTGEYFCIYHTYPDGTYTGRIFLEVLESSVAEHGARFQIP

B1: PD-1-TIGIT parental IgG1 heteromab (bispecific antibody)
heavy 1: QVQLVQSGAEVKKPGSSVKVSCKASGGTFSSYAISWVRYAPGQGLEWMGLIIPSFDTAGYAQKFQGRVAITVDESTSTAYMELSSLRSEDTAVYYCARAEHSSTGTFDYWGRGTLVTVSSASTKGPSVFPLAPSSKSTSGGTAALGCLVADYFPEPVTVSWNSGALTSGVHTFPAVLQSSGLYSLASVVTVPSSSLGTQTYICNVNHKPSNTKVDERVEPKSCDKTHTCPPCPAPEAAGGPSVFLFPPKPKDTLMISRTPEVTCVVVDVSHEDPEVKFNWYVDGVEVHNAKTKPREEQYNSTYRVVSVLTVLHQDWLNGKEYKCKVSNKALAAPIEKTISKAKGQPREPQVYTLPPSREEMTDNQVSLTCLVKGFYPSDIAVEWESNGQPENNYKTTPPVLMSDGSFFLASKLTVDKSRWQQGNVFSCSVMHEALHNHYTQKSLSLSPGK
light 1: DIQMTQSPSSVSASVGDRVTITCRASQGISSWLAWYQRKPGDAPKLLISAASSLQSGVPSRFSGSGSGTDFTLTISSLQPEDFATYYCQQANHLPFTFGGGTKVEIKRTVAAPSVFIFPPSDKQLKSGTARVVCLLNNFYPREAKVQWKVDNALQSGNSQESVTEQDSKDSTYSLISTLTLSKADYEKHKVYACEVTHQGLSSPVTKSFNRGEC
heavy 2: EVQLVESGGGLVQPGGSLRLSCAASGFDFSSYGVPWVRKAPGKGLEWVGYIDPIFGPTYYADEVKGRFTISADDSKNSLYLQMNSLKTEDTAVYYCARDYSYGYAYALDIWGQGTLVTVSSASTKGPSVFPLAPSSKSTSGGTAALGCLVKDYFPEPVTVSWNSGALTSGVHTFPAVLQSSGLYSLSSVVTVPSSSLGTQTYICNVNHKPSNTKVDKRVEPKSCDKTHTCPPCPAPEAAGGPSVFLFPPKPKDTLMISRTPEVTCVVVDVSHEDPEVKFNWYVDGVEVHNAKTKPREEQYNSTYRVVSVLTVLHQDWLNGKEYKCKVSNKALAAPIEKTISKAKGQPRRPRVYTLPPSREEMTKNQVSLVCLVKGFYPSDIAVEWESNGQPENNYKTTPPVLDSDGSFFLYSVLTVDKSRWQQGNVFSCSVMHEALHNHYTQKSLSLSPGK
light 2: RIVMTQTPLSLSVTPGQPASISCQASQRISPYLAWYLDKPGQPPQLLISRASKLASGVPDRFSGSGSGTDFTLKISRVEAEDVGVYYCQSYYVHTSSGYAFGGGTKVEIKRTVAAPSVFIFPPSDEQLKSGTASVVCLLNNFYPREAKVQWKVDNALQSGNSQESVTEQDSKDSTYSLSSTLTLSKADYEKHKVYACEVTHQGLSSPVTKSFNRGEC
notes: Unmodified control heteromab; also called PD-1-TIGIT IgG1 heteromab; PD-1-Tigit IgG1 heteromab
B2: PD-1-TIGIT IgG1 heteromab (ADK on PD-1 light chain Fab region only) (bispecific antibody)
heavy 1: B1 heavy 1
light 1: B1 light 1 with T109A, V110D, Q199K
heavy 2: B1 heavy 2
light 2: B1 light 2
notes: also called PD-1-Tigit IgG1 heteromab (with ADK LC Fab region on PD-1 arm only)
B3: PD-1-TIGIT IgG1 heteromab (KK on PD-1 light chain Fab region only) (bispecific antibody)
heavy 1: B1 heavy 1
light 1: B1 light 1 with E143K, Q199K
heavy 2: B1 heavy 2
light 2: B1 light 2
notes: also called PD-1-Tigit IgG1 heteromab (with KK LC Fab region on PD-1 arm only)
B4: PD-1-TIGIT IgG1 heteromab (DK on PD-1 light chain Fab region only) (bispecific antibody)
heavy 1: B1 heavy 1
light 1: B1 light 1 with V110D, E143K
heavy 2: B1 heavy 2
light 2: B1 light 2
notes: also called PD-1-Tigit IgG1 heteromab (with DK LC Fab region on PD-1 arm only)
B5: PD-1-TIGIT IgG1 heteromab (DKK on PD-1 light chain Fab region only) (bispecific antibody)
heavy 1: B1 heavy 1
light 1: B1 light 1 with V110D, E143K, Q199K
heavy 2: B1 heavy 2
light 2: B1 light 2
notes: also called PD-1-Tigit IgG1 heteromab (with DKK LC Fab region on PD-1 arm only)
B6: cMet-BAH10 IgG1 heteromab (RE on cMet heavy chain Fc region only) (bispecific antibody)
heavy 1: EVQLVESGGGLVQPGGSLRLSCAASGYTFTSYWLHWVRKAPGKGLEWVGMIDPSNSDTRFNPEFKDRFTISADTSKNTAYLQMNSLRAEDTAVYYCATYRSYVTPLDYWGQGTLVTVSSASTKGPSVFPLAPSSKSTSGGTAALGCLVKDYFPEPVTVSWNSGALTSGVATGPAVLQSSGLYSLSSVVTVPSSSLGTQTYICNVNHKPSNTKVDKKVEPKSCDKTHTCPPCPAPEAAGGPSVFLFPPKPKDTLMISRTPEVTCVVVDVSHEDPEVKFNWYVDGVEVHNAKTKPREEQYNSTYRVVSVLTVLHRDWLNGEEYKCKVSNKALPAPIEKTISKAKGQPREPQVYTLPPSREEMTDNQVSLTCLVKGFYPSDIAVEWESNGQPENNYKTTPPVLMSDGSFFLASKLTVDKSRWQQGNVFSCSVMHEALHNHYTQKSLSLSPGK
light 1: RIQMTQSPSSLSASVGDRVTITCKSSQSLLYTSSQKNYLAWYQDKPGKAPKLLIYWASTRESGVPSRFSGSGSGTDFTLTISSLQPEDFATYYCQQYYAYPWTFGQGTKVEIKRTVAAPSVFIFPPSDEQLKSGTASVVCYLNNFYPREAKVQWKVDNALQSGNSQESVTEQDSKDSTYSLWSTLTLSKADYEKHKVYACEVTHQGLSSPVTKSFNRGEC
heavy 2: QVQLVQSGAEVKKPGSSVKVSCKASGYTFTTYYLHWVRYAPGQGLEWMGWIYPGNVHAQYNEKFKGRVTITADKSTSTAYMELSSLRSEDTAVYYCARSWEGFPYWGRGTTVTVSSASTKGPSVFPLAPCSKSTSGGTAALGCLVKDYFPEPVTVSWNSGALTSGVHTFPAVLQSSGLYSLSSVVTVPSSSLGTQTYICNVNHKPSNTKVDKKVEPDSGDKTHTCPPCPAPEAAGGPSVFLFPPKPKDTLMISRTPEVTCVVVDVSHEDPEVKFNWYVDGVEVHNAKTKPREEQYNSTYRVVSVLTVLHQDWLNGKEYKCKVSNKALPAPIEKTISKAKGQPRRPRVYTLPPSREEMTKNQVSLVCLVKGFYPSDIAVEWESNGQPENNYKTTPPVLDSDGSFFLYSVLTVDKSRWQQGNVFSCSVMHEALHNHYTQKSLSLSPGK
light 2: DIQMTQSPSSLSASVGDRVTITCKASQNVGINVAWYQRKPGDAPKSLISSASYRYSGVPSRFSGSGSGTDFTLTISSLQPEDFATYFCQQYDTYPFTFGQGTKVEIKRTVAAPSVFIFPPSKEQLKSGTASVVCLLNNFYPREAKVQWKVDNALQSGNSQESVTEQDSKDSTYSLSSTLTLSKADYEKHKVYACEVTHQGLSSPVTKSFNRGEC
notes: also called cMet-BAH10 IgG1 heteromab (with RE HC Fc format on cMet arm only)
B7: cMet mAb (RE on both HCs) (antibody, human IgG1, kappa, L234A L235A)
heavy: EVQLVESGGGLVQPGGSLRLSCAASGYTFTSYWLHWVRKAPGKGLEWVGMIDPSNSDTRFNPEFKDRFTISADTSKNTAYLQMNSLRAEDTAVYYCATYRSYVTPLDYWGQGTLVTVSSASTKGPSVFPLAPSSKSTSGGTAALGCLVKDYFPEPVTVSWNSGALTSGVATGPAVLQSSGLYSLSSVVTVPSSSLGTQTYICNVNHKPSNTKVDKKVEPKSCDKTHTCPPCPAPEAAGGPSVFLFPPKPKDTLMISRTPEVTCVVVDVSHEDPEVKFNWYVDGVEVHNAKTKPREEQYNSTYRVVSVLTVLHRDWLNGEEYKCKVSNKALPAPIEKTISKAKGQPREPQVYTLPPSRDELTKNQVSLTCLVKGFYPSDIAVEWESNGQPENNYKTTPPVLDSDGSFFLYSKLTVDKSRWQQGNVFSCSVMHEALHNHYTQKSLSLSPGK
light: B6 light 1
notes: IgG1 / kappa; also called cMet parental mAb (with RE HC Fc format on both HCs)

How the values were obtained:
[1] = target: T2, CaptureSelect Kappa XL ligand; experiment: CaptureSelect Kappa XL affinity column after Protein A
T2 construct: also called Biotin-KappaXL; Kappa XL column
Excerpt: Multispecific binding proteins of the present disclosure, in clarified medium or recovered from Protein A purification, may be subjected to a second purification step using a CaptureSelect™ Kappa XL (Thermo Fisher Cat. #494321001) pre-packed affinity column. Briefly, multispecific binding proteins of the present disclosure recovered from Protein A purification are subjected to a Kappa XL affinity column which has been equilibrated with a compatible buffer, such as phosphate buffered saline (PBS) at pH 7.4. The column is then washed to remove nonspecific binding components. The bound multispecific binding protein is eluted, for example, by pH gradient (such as 20 mM Tris buffer pH 7.0 to 10 mM sodium citrate buffer pH 3.0). Binding protein fractions are detected, such as by UV absorbance or SDS-PAGE, and then are pooled.
Percent flow through (% F T) and percent elution of exemplified heteromabs of the present disclosure following kappa XL column purification essentially as described herein is assessed. Briefly, various antibody formats (as set forth in Table 3) are subjected to Kappa XL column. Flow through material is considered to comprise of impurities, such as homodimers, or misassembled antibodies, whereas the Kappa XL ligand bound material (elution material) is considered to be the correctly assembled bispecific antibody.

human TIGIT-ECD = target: T1, human TIGIT-ECD; experiment: ELISA, antibody at 1 µg/mL captured by anti-human-Fc, antigen titrated
Protocol: (§1) Binding affinity of exemplified multispecific binding proteins provided herein is assessed via ELISA. Briefly, 384-well flat bottom Elisa plates are coated with 1 ug/mL anti-human-Fc protein at 20 ul/well and incubated overnight at 4° C. The following day, plates are washed 3× with wash buffer (0.05% PBS-Tween 20) and blocked for 1 hr with blocking buffer (casein, 60 μL/well) at room temperature (RT). Plates are washed 3× with wash buffer, and binding proteins as shown in Table 10 are added at 1 μg/mL in triplicates at 20 uL/well in DPBS (Dulbecco's HyClone). Plates are incubated at RT for 1 hr, washed 3× with wash buffer, and titrated antigens are added at 20 ul/well and incubated for 60 min at RT. Plates are washed 3×, and 20 uL/well NAAP substrate is added and incubated for 20 min. Plates are washed 3×, and PNPP substrate is added at 20 uL/well, and reactions are stopped, and optical density is measured using a colorimetric microplate reader set to 405 nm.

human PD-1-ECD = target: T3, human PD-1-ECD (human, UniProt Q15116 25-170); experiment: as above
T3 construct: extracellular domain
Protocol: as §1

Protein A [2] = target: T4, Protein A (UniProt P38507 37-327, biotin (site not stated)); experiment: ELISA, Biotin-Protein A
T4 construct: Reagent; also called Biotin-Protein A; Protein A ligand
Protocol: (§2) Binding of the heavy chain Fc region formats of Table 1b for exemplified IgG heteromabs to Protein A ligand may be assessed via ELISA. Briefly, 96-well flat bottom Elisa plates are coated with 2 ug/mL goat anti-human-kappa protein at 100 ul/well and incubated overnight at 4° C. The following day, plates are washed 3× with wash buffer 0.05% PBS-Tween 20 (PBS-T)) and blocked for 1 hr with blocking buffer (casein, 200 µL/well) at room temperature (RT). Plates are washed 3× with wash buffer, and binding proteins (as shown in Table 4) are added to individual wells at 10 μg/mL and serially diluted 1:3, at a volume of 100 uL/well in PBS-T. Plates are incubated at RT for 1 hr, and washed 3× with wash buffer. Biotin-Protein A at 0.5 ug/ml is added at 100 uL/well and plates are incubated for 1 hr at RT, washed 3×, and 100 uL/well of streptavidin labeled alkaline phosphatase (SA-AP) is added to each well. Plates are incubated 30 min at RT. Plates are then washed 3×, and 100 uL/well of p-Nitrophenyl Phosphate, Disodium Salt (PNAP)(Thermo Fisher Scientific) substrate is added. Reactions are stopped and optical density is measured using a colorimetric microplate reader set to 405 nm.

Protein A [3] = target: T4, Protein A; experiment: ELISA, antibody titrated on goat anti-human-kappa, Biotin-Protein A at 0.5 ug/ml
Protocol: as §2

T3 sequence (Q15116 25-170): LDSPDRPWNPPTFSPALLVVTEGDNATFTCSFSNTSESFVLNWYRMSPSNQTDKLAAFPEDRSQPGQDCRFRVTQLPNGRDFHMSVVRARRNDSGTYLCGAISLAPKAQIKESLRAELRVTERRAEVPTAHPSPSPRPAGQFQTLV

| Binder | % Elution [1] [%] | % Flow Through (FT) [1] [%] | EC50 (human TIGIT-ECD) [nM] | EC50 (human PD-1-ECD) [nM] | fold decrease in binding against cMet-BAH10 IgG1 heteromab (Protein A [2]) [fold] | EC50 (Protein A [3]) [nM] | fold decrease of binding affinity against parental (Protein A [2]) [fold] |
| --- | --- | --- | --- | --- | --- | --- | --- |
| B1 | 99.6 | 0.44 | 0.0681 | 0.007 | – | – | – |
| B2 | 78.2 | 21.8 | 0.0108 | 0.0303 | – | – | – |
| B3 | 74.8 | 25.2 | 0.0182 | 0.0093 | – | – | – |
| B4 | 73.5 | 26.6 | 0.0261 | 0.0097 | – | – | – |
| B5 | 80.7 | 19.3 | 0.0454 | 0.0108 | – | – | – |
| B6 | – | – | – | – | ~1.2 | 0.56 | – |
| B7 | – | – | – | – | – | 0.98 | ~2 |
